Assay [1] addresses ZM197M.PB7 envelope (HIV-1). The experiment in a line: cell-based or functional assay. Also on record: unit not given beside the values.
For assay [2], the target named is QH0692.42 envelope (HIV-1). The experiment in a line: cell-based or functional assay. Also on record: unit not given beside the values.
In another assay the target is TRO.11 envelope (HIV-1). As to the kind of experiment: cell-based or functional assay. The arrangement: unit not given beside the values.
The target of assay [3] is Du156.12 envelope (HIV-1). The experiment in a line: cell-based or functional assay. The arrangement: unit not given beside the values.
The target in assay [4] is CAP206.1.B5 envelope (HIV-1). The experiment in a line: cell-based or functional assay. Also on record: unit not given beside the values.
The target in assay [5] is Du422.1 envelope (HIV-1). As to the kind of experiment: cell-based or functional assay. Also on record: unit not given beside the values.
The target of assay [6] is ZM197M.PB7 envelope (HIV-1). The experiment in a line: cell-based or functional assay.
Assay [7] concerns the target QH0692.42 envelope (HIV-1). The experiment in a line: cell-based or functional assay.
For the next assay, the target named is SC422661.8 envelope (HIV-1). As to the kind of experiment: cell-based or functional assay.
For assay [8], the target named is Du156.12 envelope (HIV-1). As to the kind of experiment: cell-based or functional assay.
In assay [9] the target is CAP206.1.B5 envelope (HIV-1). The experiment in a line: cell-based or functional assay.
Assay [10] concerns the target Du422.1 envelope (HIV-1). The experiment in a line: cell-based or functional assay.
A further assay concerns the target T1, MOJO gp140 (HIV-1).
T1 construct: domain: gp140
As to the kind of experiment: antigen panel (luminex assay per paragraph 163); unit not given.

In another assay the target is hepatitis E2 protein (Hepatitis C). The description is as above.
The target of a further assay is HIV-1 gp41 (HIV-1). The assay is described as above.

B1: CAP206-CH12 (antibody, V domains shown)
VH: QVQLVQSGAEVKKPGSSVKLSCKASGGTFGSYSVTWVRQAPGQTFEWVGRIVPWVGVPNYAPKFQGRVTITADKSSTVYMELTSLRFEDTAVYYCATAYEASGLSYYYYMDDWGKGTTVTVSS
VL: EIVLTQSPGTLSLSPGERATLSCRASQSVTSSYLAWFRHKPGQAPRLLIYGASYRGTGIPDRISGSGSGTDFTLTISRLEPEDFAVYYCQHYGGSPGMYTFGQGTRLEIK
notes: also called mAb 2311; 2311
Regarding B1, the “IC50 in TZM-bl cells” value was 13 with ZM197M.PB7 envelope [1]; greater than 32 with QH0692.42 envelope [2]; 17.5 in the assay with TRO.11 envelope; 14.9 with Du156.12 envelope [3]; 5.9 with CAP206.1.B5 envelope [4]; greater than 32 with Du422.1 envelope [5]. The “IC50 in TZM-bl/FcγRI cells” value in the assay with ZM197M.PB7 envelope [6] was 300 µg/mL; with QH0692.42 envelope [7], greater than 32000 µg/mL; in the assay with SC422661.8 envelope it was 400 µg/mL; in the assay with Du156.12 envelope [8], 600 µg/mL; with CAP206.1.B5 envelope [9], 700 µg/mL; in the assay with Du422.1 envelope [10], 2700 µg/mL. Moreover, the reactivity was determined as 2910 with MOJO gp140, 855 with hepatitis E2 protein and 1980 with HIV-1 gp41.
